One substance from patent US20220154170A1 can be followed below.

The assay concerns the target clade B MN gp41 monomer (HIV-1 clade B, strain MN) (UniProt P05877). Put plainly: endpoint ELISA, plate-coated MN gp41. On the technique in general: An ELISA detects its analyte on a solid surface through an enzyme-linked reagent.
UniProt P05877, sequence (P05877 514-856 limits assumed): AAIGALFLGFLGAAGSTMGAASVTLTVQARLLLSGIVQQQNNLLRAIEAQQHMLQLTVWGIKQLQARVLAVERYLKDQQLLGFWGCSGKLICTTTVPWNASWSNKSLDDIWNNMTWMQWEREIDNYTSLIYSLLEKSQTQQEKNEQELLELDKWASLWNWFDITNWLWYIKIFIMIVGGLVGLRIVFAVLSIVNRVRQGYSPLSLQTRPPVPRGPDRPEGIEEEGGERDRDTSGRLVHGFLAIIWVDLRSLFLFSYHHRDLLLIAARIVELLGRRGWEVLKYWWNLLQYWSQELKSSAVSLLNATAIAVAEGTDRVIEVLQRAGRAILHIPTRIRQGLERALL

With 240-D (antibody), the endpoint titer amounted to 78.1 ng/mL.
